Data as given in the nanobody polyreactivity screen of Harvey et al. (2022).

Test: yeast display, Sf9 membrane polyspecificity reagent, FACS + sequencing; frameworks hold sequencing errors
Method in brief: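 In a synthetic yeast display library (Saccharomyces cerevisiae BJ5465), nanobody expression was induced with galactose for 36–48 hours. FACS gates were set low and high (top ~1%) using anti-HA fluorescence for expression and streptavidin fluorescence for binding of the Sf9 membrane reagent. Each polyreactivity label is drawn from the gate of origin.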
With “QVQLVESGGGLVQAGGSLRLSCAASGIIFPRYAMGWYRQAPGKEREVVAAITSGGSTYYADSVKGRFTISRDNAKNTVYLQINSLKPEDTAVSYCAAVRYSWDIYREYYYWGQGTQVTVSS” the “polyreactivity (PSR sort gate)” value was “high polyreactivity”. For “QVQLVESGGGLVQAGGSLRLSCAASGIIFPRYAMGWYRQEPGKERELVAAITRRGGRTYYADSVKGRFTISRDNAKNTVYLQMNSLKPEDTAVYYCAARKVNRGSGGYDSWGQGTQVTVSS”, the “polyreactivity (PSR sort gate)” value was “high polyreactivity”. For “QVQLVESGGGLVQAGGSLRLSCAASGIIFPSYAMGWYRQAPGKERELVAGISSGGNTYYADSVKGRFTISRDNAKNTVYLQMNSLKPEDTAVYYCATAFAIWGLYYGYDYWGQGTQVTVSS”, the “polyreactivity (PSR sort gate)” value was “low polyreactivity”. With “QVQLVESGGGLVQAGGSLRLSCAASGIIFPSYDMGWYRQAPGKERELVAGITDGGDTTYADSVKWRFTISRDNAKNTVYLQMNSLKPEDTAVYYCAADIGYGYWHFDYWGQGTQVTVSW” the “polyreactivity (PSR sort gate)” value was “low polyreactivity”. With “QVQLVESGGGLVQAGGSLRLSCAASGIIFPWYDMGWYRQAPGKERELVAGITDGGDTTYADSVKWRFTISRDNAKNTVYLQMNSLKPEDTAVYYCAADIGYGYWHFDYWGQGTQVTVSS” the “polyreactivity (PSR sort gate)” value was “low polyreactivity”. For “QVQLVESGGGLVQAGGSLRLSCAASGIIFPWYTMGWYRQAPGKERELVAAISSGGRTNYADSVKGRFTISRDNAKYTVYLQMNSLKPEDTAVYYCAAKYYRDRDWGQGTQVTVSS”, the “polyreactivity (PSR sort gate)” value was “high polyreactivity”. For “QVQLVESGGGLVQAGGSLRLSCAASGIIFPYYAMGLYRQAPGKERELVAAITSRTGSTYYADSVKGRFTISRDNAKNTVYLQMNSLNTEYTAVYYCIKEREPYGYWSFDYWGQGTQVTVSS”, the “polyreactivity (PSR sort gate)” value was “low polyreactivity”. With “QVQLVESGGGLVQAGGSLRLSCAASGIIFPYYAMGWSRQGPGKERELVAGISSSGGITYADSVKGRFTISRDNAKYTVYLQMNSLKPEDTAVYYCNAEYQWLEYDYWGQGTQVTVSS” the “polyreactivity (PSR sort gate)” value was “low polyreactivity”. With “QVQLVESGGGLVQAGGSLRLSCAASGIIFPYYAMGWYRPAPGKERELVAAITSSGGSTYYADSVKGRFTISRDNAKNTVYLQMNSLKPEDSAVYYCAAQTWGHGGDSWGQGTQVTVSS” the “polyreactivity (PSR sort gate)” value was “high polyreactivity”. For “QVQLVESGGGLVQAGGSLRLSCAASGIIFPYYTMGWYRQAPGKERELVARITNGGRTYYADSVKGRFTISRDNAKNTVYLQMISLKPEDTAVYYCNAGRYYIGGYWGQGTQVTVSS”, the “polyreactivity (PSR sort gate)” value was “high polyreactivity”. In the case of “QVQLVESGGGLVQAGGSLRLSCAASGIIFQGYVMGWYRQAPGKERELVAVISRTRGSTYYADSVKGRFTISRDNAKNTVYLQMNSLKPEDTAVYYCAAGTPRLRYLQGHRMNYWGQGTQVTVSS”, the “polyreactivity (PSR sort gate)” value is reported as “high polyreactivity”. With “QVQLVESGGGLVQAGGSLRLSCAASGIIFQNYAMGWYRPAPGKERELVAVISNTGSTNYADSVKGRFTISRDNAKNTVYLQMNSLKPEDTAVYYCAAEFRVVDWLWFDYWGQGTQVTVSS” the “polyreactivity (PSR sort gate)” value was “high polyreactivity”. In the case of “QVQLVESGGGLVQAGGSLRLSCAASGIIFQSYTMGWYRQPPGKERELVAAIDSGGSTYYADSVKGRFTISRDNAKNTVYLQMNSLKPEDTAVYYCATDYPLSWSPLYDYDYWGQGTQVTVSS”, the “polyreactivity (PSR sort gate)” value is reported as “low polyreactivity”. With “QVQLVESGGGLVQAGGSLRLSCAASGIIFRDYDMGWYRQAPGKERELVAAITWDGGSTYYADSVKGRFTISRDNAKNTVYLQMNSLTPEDTAVYYCAADSRYHYYVGYYYWGQGTQVTVSS” the “polyreactivity (PSR sort gate)” value was “high polyreactivity”. In the case of “QVQLVESGGGLVQAGGSLRLSCAASGIIFRGNAMGWYRQAPGKERELVAGISSRGGSTYYADSVKGRFTISRDNAKNTVYLQMNSLKPEDTAVYYCAAQYRSYLSGYGYWGQGTQVTVSS”, the “polyreactivity (PSR sort gate)” value is reported as “high polyreactivity”. For “QVQLVESGGGLVQAGGSLRLSCAASGIIFRGYVMGLYIQAPGKERELVAAINSSTGSTYYADSVKGRFTISRDNAKNTVYLQMNSLKPEDTAVYYCNAEDRGSTYVDFDYWGQGTQVTVSS”, the “polyreactivity (PSR sort gate)” value was “low polyreactivity”. For “QVQLVESGGGLVQAGGSLRLSCAASGIIFRLNAMGWYRQAPGIERELVAAILRRGGSTYYADSVKGRFTISRDNAKNTVYLQMNSLKPEDTAVYYCAKDPHGSDFGYWGQGTQVTVSS”, the “polyreactivity (PSR sort gate)” value was “low polyreactivity”. For “QVQLVESGGGLVQAGGSLRLSCAASGIIFRNYAMGWYRPAPGKEREFVASITKRGGSTYYADSVKGRFTISRDNAKNTVYLQINSLKPEDTAVYYCNTQWYRGRTEYGYWGQGTQVTVSS”, the “polyreactivity (PSR sort gate)” value was “high polyreactivity”. In the case of “QVQLVESGGGLVQAGGSLRLSCAASGIIFRPYAMGWYRQAPGKERELVAAITWSGTSTYYADSVKGRFTISRDNAKNTVYLQMNSLKPEDTAVYYCAATWSYGVSWYEYWGQGTQVTVSS”, the “polyreactivity (PSR sort gate)” value is reported as “high polyreactivity”. In the case of “QVQLVESGGGLVQAGGSLRLSCAASGIIFRRNAMGWYRQAPGKERELVASITSGGSTNYADSVKGRFTISRDNAKNTVYLQMNSLKPEDTAVYYCATVRKYRAMDYWGQGTQVTVSS”, the “polyreactivity (PSR sort gate)” value is reported as “high polyreactivity”. In the case of “QVQLVESGGGLVQAGGSLRLSCAASGIIFRRYAMGWYRQAPGKERELVAAIRTSGGNTYYADSVKGRFTISRDNAKNTVYLQMNSLKPEDTAVYYCAARRHYTYGNGPSRGGQMDYWGQGTQVTVSS”, the “polyreactivity (PSR sort gate)” value is reported as “high polyreactivity”. In the case of “QVQLVESGGGLVQAGGSLRLSCAASGIIFRRYAMGWYRQAPGKERELVAAITSGGSTYYADSVKGRFTISRDNAKNTVYLQLHSLKPEDTAVYYCNKGGYAIRYDYYWGQGTQVTVSS”, the “polyreactivity (PSR sort gate)” value is reported as “high polyreactivity”. In the case of “QVQLVESGGGLVQAGGSLRLSCAASGIIFRRYAMGWYRQAPGKERELVATITRSGSTNYADSVKGRFTISRDNAKNTVYLQMNSLKPEDTAVYYCNADYIRGGWYSEDYWGQGTQVTVSS”, the “polyreactivity (PSR sort gate)” value is reported as “high polyreactivity”. In the case of “QVQLVESGGGLVQAGGSLRLSCAASGIIFRRYAMGWYRQAPVKERELVAAITRGGITYYADSVKGRFTISRDNAKNTVYLQMNSLKPEDTAVYYCAALAYPQEYDYWGQGTQVTVSS”, the “polyreactivity (PSR sort gate)” value is reported as “low polyreactivity”. For “QVQLVESGGGLVQAGGSLRLSCAASGIIFRSYAMGWYRQAPGKERELVAAITGGGTTNYADSVKGRFTISRDNAKNTVYLQMNSLKPEDTEVYYCNAGLDWFWFNEMDYWGQGTQVTVSS”, the “polyreactivity (PSR sort gate)” value was “low polyreactivity”. For “QVQLVESGGGLVQAGGSLRLSCAASGIIFRSYAMGWYRQAPGKERELVASITSGGSTNYADSVKGRFTNSRDNAKNTVYLQMNSLKPEDTAVYYCAADYYYTSFGGYDYWGQGTQVTVSS”, the “polyreactivity (PSR sort gate)” value was “high polyreactivity”. In the case of “QVQLVESGGGLVQAGGSLRLSCAASGIIFRWYAMGWYRQAPGKERELVAAISRSGSSTYYADSVKGRFTISRDNAKNTVYLQMNSLKPEDTAVYYCNAEYQAPTEKGRYYYPWPYEYWGQGTQVTVSS”, the “polyreactivity (PSR sort gate)” value is reported as “high polyreactivity”. With “QVQLVESGGGLVQAGGSLRLSCAASGIIFRYNAMGWYRPAPGKERELVAAITSGGITKYADSVKGRFTISRDNAKNTVYLQMNSLKPEDTAVYYCNAEYGFFRAGSRGEYWGQGTQVTVSS” the “polyreactivity (PSR sort gate)” value was “low polyreactivity”. For “QVQLVESGGGLVQAGGSLRLSCAASGIIFRYNAMGWYSQAPGKDRELVAAITYRGGSTRYADSVKGRFTISRDNAKNTVYLQMNSLKPEDTAVYYCNAQRRTYIYDYWGQGTQVTVSS”, the “polyreactivity (PSR sort gate)” value was “high polyreactivity”. With “QVQLVESGGGLVQAGGSLRLSCAASGIIFRYNTMGWYRQEPGKERELVAAISWSGDSTYYADSVKGRFTISRDNAKNTVYLQMNSLKPEDTAVYYCARSQFSRSPSRMGYWGEGTQVTVSS” the “polyreactivity (PSR sort gate)” value was “high polyreactivity”. With “QVQLVESGGGLVQAGGSLRLSCAASGIIFRYYAMGLYRQAPGKERELVAAITTGGSTYYADSVKGRFTISRDNAKNTVYLQMNSLKPEDTAVYYCAAQILVRHIPYYYWGQGTQVTVSS” the “polyreactivity (PSR sort gate)” value was “high polyreactivity”. For “QVQLVESGGGLVQAGGSLRLSCAASGIIFRYYAMGWYRQAPGKEREFVAAINYSGGSTYYADSVKGRFTISRDNAKYSVYLLMNSLKPEDTAVYYCAARSYTYTAPIYGYWGQGTQVTVSS”, the “polyreactivity (PSR sort gate)” value was “high polyreactivity”. In the case of “QVQLVESGGGLVQAGGSLRLSCAASGIIFRYYAMGWYRQAPGKERELVAGITSNGGSTYYADSVKGRFTISRDNAKNTVYLQMNSLKPVDTAVYYCAAVSLYVWWALEYWGQGTQVTVSS”, the “polyreactivity (PSR sort gate)” value is reported as “high polyreactivity”. With “QVQLVESGGGLVQAGGSLRLSCAASGIIFSDYAMGWYRQAPGKERELVATITRSVRTSYADSVKGRFTISRDNAKNTVYLQMNSLKPEDTAVYYCNADFVGAVIAYDYLGQGTQVTVSS” the “polyreactivity (PSR sort gate)” value was “low polyreactivity”. For “QVQLVESGGGLVQAGGSLRLSCAASGIIFSGYAMGWYRQAPGKERELVAAITGSGDITYYADSVKGRFTISRDNAKNTVYLQMNSLKPEDTAVYYCADVASSQYRAEEYNYWGQGTQVTVSS”, the “polyreactivity (PSR sort gate)” value was “low polyreactivity”. In the case of “QVQLVESGGGLVQAGGSLRLSCAASGIIFSLYAMGAYIQATGKERELVAAITTGGRTYYADSVKGRFTISRDNAKYSVYLQMNSLKPEDTAVYYCAALGPWQGGTTLSTNRGYWGQGTQVTVSS”, the “polyreactivity (PSR sort gate)” value is reported as “high polyreactivity”. With “QVQLVESGGGLVQAGGSLRLSCAASGIIFSPYARGWYRQAPGKERELVAAISYSGGSTYYADSVKGRFTISRDNAKNTVYLQMNSLKPEDTAVYYCAVVYSYYLAVLGYWDYDYWGQGTQVTVSS” the “polyreactivity (PSR sort gate)” value was “low polyreactivity”. For “QVQLVESGGGLVQAGGSLRLSCAASGIIFSQYAMGWYRQAPGKERELVASISRSGGITYYADSVKGRFTISRDNAKNTVYLQMNSLKPEDTAVYYCNAAKACREQWTSFDYWGQGTQVTVSS”, the “polyreactivity (PSR sort gate)” value was “high polyreactivity”. With “QVQLVESGGGLVQAGGSLRLSCAASGIIFSRYAMGWYRQAPGKERELVAAISTSGGRTFYADSVKGRFTISRDYAKNTVYLQMNSLKPEDTAVYYCNAEIQRGPGRGGYNYWGQGTQVTVSS” the “polyreactivity (PSR sort gate)” value was “high polyreactivity”. In the case of “QVQLVESGGGLVQAGGSLRLSCAASGIIFSSNVMGWYRQAPGKERELVAAISRSGDRSYYADSVKGRFTISRDNAKITVYLQMNSLKPEDTAVYYCAGRVRVNVVSNGYWGQGTQVTVSS”, the “polyreactivity (PSR sort gate)” value is reported as “high polyreactivity”. In the case of “QVQLVESGGGLVQAGGSLRLSCAASGIIFSSNVMGWYRQAPGKERELVAAISRSGDRTYYADSVKGRFTISRDNAKNTVYLQMNSLKPEDTAVYYCAARERVNVVSNGYWGQGTQVTVSS”, the “polyreactivity (PSR sort gate)” value is reported as “high polyreactivity”. For “QVQLVESGGGLVQAGGSLRLSCAASGIIFSVYAMGWYRQAPGKERELVAAITRSGSRTYYADSVKGRFTISRDNAKNTVYLQMNSLKPEDTAVYYCNAVPRVTRPSAVEEYDYWGQGTQVTVSS”, the “polyreactivity (PSR sort gate)” value was “high polyreactivity”. In the case of “QVQLVESGGGLVQAGGSLRLSCAASGIIFSWNTMGWYRQAPGKERELVAAISSSGGSTYYADSVKGRFTISRDNAKNTVYLQMNSLKPEDTAVYYCAADVYHWIHEYDYWGQGTQVTVSS”, the “polyreactivity (PSR sort gate)” value is reported as “low polyreactivity”.
